Measured values from patent US20250263476A1 (ARGENX, published 2025).

What was measured:
C2 from rat = biological target: T1, C2 from rat (rat, UniProt Q8CIP8 19-758); test: not described
T1 sequence: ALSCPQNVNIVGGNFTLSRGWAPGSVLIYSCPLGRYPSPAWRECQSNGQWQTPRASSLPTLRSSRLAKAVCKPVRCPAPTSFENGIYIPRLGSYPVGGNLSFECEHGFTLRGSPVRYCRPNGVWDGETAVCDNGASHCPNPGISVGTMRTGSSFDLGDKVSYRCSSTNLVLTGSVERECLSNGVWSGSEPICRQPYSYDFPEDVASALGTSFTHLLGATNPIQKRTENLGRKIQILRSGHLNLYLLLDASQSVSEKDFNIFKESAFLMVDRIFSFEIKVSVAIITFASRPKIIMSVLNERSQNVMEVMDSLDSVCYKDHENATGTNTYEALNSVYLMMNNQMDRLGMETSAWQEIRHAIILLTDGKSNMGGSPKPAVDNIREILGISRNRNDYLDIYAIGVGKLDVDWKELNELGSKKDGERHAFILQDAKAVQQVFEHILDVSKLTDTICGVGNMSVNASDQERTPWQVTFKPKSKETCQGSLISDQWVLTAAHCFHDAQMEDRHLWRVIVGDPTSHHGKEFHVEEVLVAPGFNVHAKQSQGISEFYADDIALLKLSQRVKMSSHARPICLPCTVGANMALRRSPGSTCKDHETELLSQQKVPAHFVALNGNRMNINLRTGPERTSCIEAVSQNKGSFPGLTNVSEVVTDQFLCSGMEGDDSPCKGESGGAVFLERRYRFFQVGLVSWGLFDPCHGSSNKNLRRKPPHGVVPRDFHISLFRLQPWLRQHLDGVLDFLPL

C2 from rabbit = biological target: T2, C2 from rabbit (rabbit, UniProt G1SS66 21-744); test: not described
T2 sequence: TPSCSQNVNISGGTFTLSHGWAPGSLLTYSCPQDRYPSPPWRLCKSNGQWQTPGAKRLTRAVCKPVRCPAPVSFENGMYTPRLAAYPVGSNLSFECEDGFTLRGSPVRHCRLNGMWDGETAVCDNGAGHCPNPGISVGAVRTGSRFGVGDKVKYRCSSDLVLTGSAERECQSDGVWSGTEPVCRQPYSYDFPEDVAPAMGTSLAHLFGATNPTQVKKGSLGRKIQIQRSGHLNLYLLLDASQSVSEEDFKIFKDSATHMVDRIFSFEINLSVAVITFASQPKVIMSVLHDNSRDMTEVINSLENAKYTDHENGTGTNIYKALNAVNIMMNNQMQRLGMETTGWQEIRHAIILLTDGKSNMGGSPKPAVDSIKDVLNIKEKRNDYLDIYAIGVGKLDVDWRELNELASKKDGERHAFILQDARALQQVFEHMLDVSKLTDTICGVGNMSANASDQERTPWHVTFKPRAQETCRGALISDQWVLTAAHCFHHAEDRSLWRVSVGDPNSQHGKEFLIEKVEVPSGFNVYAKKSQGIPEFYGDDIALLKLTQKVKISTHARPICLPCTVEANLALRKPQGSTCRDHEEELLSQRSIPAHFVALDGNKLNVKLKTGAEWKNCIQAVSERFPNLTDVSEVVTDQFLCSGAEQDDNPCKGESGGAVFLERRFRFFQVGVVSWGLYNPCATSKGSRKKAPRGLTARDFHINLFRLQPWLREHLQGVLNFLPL

C2 from mouse = biological target: T3, C2 from mouse (mouse, UniProt P21180 19-760, limits assumed); test: not described
T3 sequence (looked up): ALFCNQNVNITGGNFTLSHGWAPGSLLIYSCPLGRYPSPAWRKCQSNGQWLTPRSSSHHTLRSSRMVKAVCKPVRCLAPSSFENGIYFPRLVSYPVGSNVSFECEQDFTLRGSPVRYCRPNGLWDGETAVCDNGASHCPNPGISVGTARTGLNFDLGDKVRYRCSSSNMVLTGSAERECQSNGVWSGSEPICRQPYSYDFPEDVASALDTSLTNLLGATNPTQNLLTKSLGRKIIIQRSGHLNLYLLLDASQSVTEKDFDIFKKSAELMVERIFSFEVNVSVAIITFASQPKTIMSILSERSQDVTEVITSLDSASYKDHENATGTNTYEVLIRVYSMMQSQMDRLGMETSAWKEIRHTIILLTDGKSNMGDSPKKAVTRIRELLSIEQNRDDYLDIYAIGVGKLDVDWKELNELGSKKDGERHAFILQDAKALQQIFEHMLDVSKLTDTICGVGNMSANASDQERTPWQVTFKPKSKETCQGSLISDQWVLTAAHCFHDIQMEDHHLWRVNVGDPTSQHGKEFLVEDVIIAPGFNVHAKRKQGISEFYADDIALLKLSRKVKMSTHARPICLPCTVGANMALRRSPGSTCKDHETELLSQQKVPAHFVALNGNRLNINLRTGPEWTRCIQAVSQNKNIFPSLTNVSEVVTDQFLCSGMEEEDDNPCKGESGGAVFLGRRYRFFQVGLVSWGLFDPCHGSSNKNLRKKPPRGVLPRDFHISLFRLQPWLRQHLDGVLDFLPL

[1] = biological target: T4, human complement component 2 (C2) (human, UniProt P06681 21-752, limits assumed); test: method not described; binding stated to be pH- and Ca2+-dependent; lower end of the printed range for human C2; pH/Ca2+ condition not stated
T4 construct: also called human C2
T4 sequence (looked up): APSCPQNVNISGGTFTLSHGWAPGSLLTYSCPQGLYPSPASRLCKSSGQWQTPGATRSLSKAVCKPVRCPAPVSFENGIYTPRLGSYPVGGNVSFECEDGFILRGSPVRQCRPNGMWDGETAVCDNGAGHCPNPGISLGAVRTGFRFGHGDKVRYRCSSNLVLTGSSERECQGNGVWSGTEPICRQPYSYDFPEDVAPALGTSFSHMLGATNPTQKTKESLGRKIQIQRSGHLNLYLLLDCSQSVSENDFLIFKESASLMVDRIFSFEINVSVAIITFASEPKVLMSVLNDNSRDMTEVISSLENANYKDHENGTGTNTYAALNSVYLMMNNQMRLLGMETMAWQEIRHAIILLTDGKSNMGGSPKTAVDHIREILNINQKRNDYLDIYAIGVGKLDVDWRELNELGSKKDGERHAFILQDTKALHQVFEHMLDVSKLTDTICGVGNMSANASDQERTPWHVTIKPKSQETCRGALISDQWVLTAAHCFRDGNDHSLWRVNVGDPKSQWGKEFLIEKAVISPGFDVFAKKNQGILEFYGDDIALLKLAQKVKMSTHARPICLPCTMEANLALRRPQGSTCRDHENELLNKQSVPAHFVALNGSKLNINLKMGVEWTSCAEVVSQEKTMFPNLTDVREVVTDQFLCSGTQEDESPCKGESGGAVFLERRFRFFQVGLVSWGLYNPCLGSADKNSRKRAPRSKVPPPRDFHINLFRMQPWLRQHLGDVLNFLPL

cynomolgus monkey C2 = biological target: T5, cynomolgus monkey C2 (cynomolgus monkey, UniProt G8F3W0 21-752); test: method not described; binding stated to be pH- and Ca2+-dependent; lower end of the printed range for cynomolgus C2; pH/Ca2+ condition not stated
T5 sequence: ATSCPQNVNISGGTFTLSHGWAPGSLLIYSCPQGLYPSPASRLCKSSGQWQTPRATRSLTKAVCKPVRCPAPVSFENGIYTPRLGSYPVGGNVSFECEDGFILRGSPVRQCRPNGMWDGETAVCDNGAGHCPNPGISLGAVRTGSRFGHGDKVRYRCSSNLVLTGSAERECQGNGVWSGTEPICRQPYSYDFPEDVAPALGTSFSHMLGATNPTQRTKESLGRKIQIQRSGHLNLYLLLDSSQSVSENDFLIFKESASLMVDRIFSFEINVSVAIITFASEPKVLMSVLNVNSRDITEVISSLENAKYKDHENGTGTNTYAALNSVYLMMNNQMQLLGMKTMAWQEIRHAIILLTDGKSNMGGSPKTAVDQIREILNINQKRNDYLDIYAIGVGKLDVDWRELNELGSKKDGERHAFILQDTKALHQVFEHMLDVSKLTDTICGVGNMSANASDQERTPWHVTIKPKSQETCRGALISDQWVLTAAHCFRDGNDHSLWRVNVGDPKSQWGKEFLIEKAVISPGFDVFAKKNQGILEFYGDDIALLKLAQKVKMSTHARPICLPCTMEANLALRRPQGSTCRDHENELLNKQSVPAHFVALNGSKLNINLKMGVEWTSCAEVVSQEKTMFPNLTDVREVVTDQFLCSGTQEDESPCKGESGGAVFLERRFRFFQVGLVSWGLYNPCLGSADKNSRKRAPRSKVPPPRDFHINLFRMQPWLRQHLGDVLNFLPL

B1: ARGX-117 (antibody, human IgG1, kappa, L234A L235A, V domains shown)
VH: EVQLVQSGAEVKKPGASVKVSCKASGYTFTDYNMDWVRQATGQGLEWIGDINPNYESTGYNQKFKGRATMTVDKSISTAYMELSSLRSEDTAVYYCAREDDHDAFAYWGQGTLVTVSS
VL: DNVLTQSPDSLAVSLGERATISCRASKSVRTSGYNYMHWYQQKPGQPPKLLIYLASNLKSGVPDRFSGSGSGTDFTLTISSLQAEDAATYYCQHSRELPYTFGQGTKLEIKR
notes: also called anti-C2 antibody
C2 from rat
  binding result: no binding
C2 from rabbit
  binding result: no binding
C2 from mouse
  binding result: no binding
[1]
  Kd: 0.109 to 2.02 nM
Cynomolgus monkey C2
  Kd: 0.056 to 0.13 nM
